Measurements taken from PMC8002523.

Assays:
hemoglobin (Hb) = assay: electrochemical displacement from graphene oxide (SWV); conditions: Binding buffer, pH and temperature not given in the material; aptamer stock 2.0 uM in sterile deionized water; ferricyanide redox probe; fluorescence ex 480 / …
immunoglobulin G (IgG) = assay: as above; conditions: Binding buffer, pH and temperature not given in the material; aptamer stock 2.0 uM in sterile deionized water; ferricyanide redox probe; fluorescence ex 480 / …

TGCGGTTCGTGCGGTTGTAGTAC [Modified G8-FAM]
binding signal (% current response) (hemoglobin (Hb)): 11.7
binding signal (% current response) (immunoglobulin G (IgG)): 29.5
